From patent publication US20150368333A1 (GlaxoSmithKline, published 2015)

What was measured:
[1] = biological target: T1, TNF alpha (species not given) (UniProt P01375 77-233, limits assumed); assay: cell-based or functional assay
[2] = biological target: T1, TNF alpha (species not stated in the …); assay: cell-based or functional assay; remark: listed apart in the source
[3] = biological target: T2, recombinant human TNFα (human, UniProt P01375 77-233); assay: Biacore T100 SPR, antibody captured on Protein A, TNF alpha as analyte, 37 C
T2 construct: also called human TNF alpha; tumour necrosis factor alpha
T2 sequence (P01375 77-233 limits assumed): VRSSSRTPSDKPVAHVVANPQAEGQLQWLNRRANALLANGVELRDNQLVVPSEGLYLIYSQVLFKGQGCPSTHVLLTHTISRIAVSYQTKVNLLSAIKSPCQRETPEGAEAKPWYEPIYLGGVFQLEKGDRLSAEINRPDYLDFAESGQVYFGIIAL

[4] = biological target: T3, recombinant cynomolgus TNF alpha (cynomolgus, UniProt P79337 77-233); assay: as above
T3 construct: also called Cyno TNFα
T3 sequence (P79337 77-233 limits assumed): as the sequence (P01375 77-233 limits assumed) above, with L37V, R44T, T72N, R138L counted along it

[5] = biological target: T2, recombinant human TNFα; assay: Biacore T100 SPR, antibody captured on anti-human IgG, TNF alpha as analyte, 37 C
[6] = biological target: T3, recombinant cynomolgus TNF alpha; assay: as above
[7] = biological target: T1, TNF alpha (species not stated in the …); assay: ProteOn SPR reverse format, biotinylated TNF alpha captured on neutravidin (NLC) chip, antibody as analyte, 1:1 model, apparent kinetics
[8] = biological target: T4, recombinant human FcRn (human, UniProt P55899 24-297; P61769 21-119, limits assumed); assay: SPR, antibody amine-coupled on GLM chip, FcRn as analyte, equilibrium model, pH 6.0
T4 construct: also called Human FcRn receptor
T4 sequence (P55899 24-297 limits assumed, chain 1 of 2): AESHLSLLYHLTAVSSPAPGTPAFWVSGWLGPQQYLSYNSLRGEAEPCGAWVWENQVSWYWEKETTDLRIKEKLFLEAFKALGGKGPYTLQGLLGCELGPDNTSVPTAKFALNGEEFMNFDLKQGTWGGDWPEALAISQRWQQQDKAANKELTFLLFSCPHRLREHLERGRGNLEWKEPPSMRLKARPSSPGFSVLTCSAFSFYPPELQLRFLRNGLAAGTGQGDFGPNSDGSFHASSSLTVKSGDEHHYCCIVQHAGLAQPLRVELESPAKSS
T4 sequence (P61769 21-119 limits assumed, chain 2 of 2): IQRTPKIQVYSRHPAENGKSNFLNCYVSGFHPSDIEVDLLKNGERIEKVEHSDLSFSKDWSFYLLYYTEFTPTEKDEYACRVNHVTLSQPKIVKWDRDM

[9] = biological target: T5, recombinant cynomolgus FcRn (cynomolgus, UniProt Q8SPV9 24-297; Q8SPW0 21-119, limits assumed); assay: as above
T5 construct: Construct not described; beta-2-microglobulin not mentioned; also called cyno FcRn

[10] = biological target: T6, mouse FcRn (mouse, UniProt Q61559 22-297; P01887 21-119, limits assumed); assay: as above
T6 construct: Construct not described; also called Mouse FcRn receptor
T6 sequence (looked up) 1: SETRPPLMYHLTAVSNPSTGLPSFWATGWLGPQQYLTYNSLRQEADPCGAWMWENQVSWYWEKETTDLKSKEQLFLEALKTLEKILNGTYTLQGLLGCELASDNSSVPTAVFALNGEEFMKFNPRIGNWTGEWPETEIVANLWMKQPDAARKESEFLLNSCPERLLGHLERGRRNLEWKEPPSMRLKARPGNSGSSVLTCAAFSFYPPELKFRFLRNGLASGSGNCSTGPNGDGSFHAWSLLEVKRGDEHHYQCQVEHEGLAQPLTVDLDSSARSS
T6 sequence (looked up) 2: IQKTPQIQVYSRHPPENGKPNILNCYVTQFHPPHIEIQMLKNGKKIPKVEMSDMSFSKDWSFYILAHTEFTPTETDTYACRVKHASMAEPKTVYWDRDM

[11] = biological target: T7, rat FcRn (rat, UniProt P13599 23-298; P07151 21-119, limits assumed); assay: as above
T7 construct: Construct not described; also called Rat FcRn receptor
T7 sequence (looked up) 1: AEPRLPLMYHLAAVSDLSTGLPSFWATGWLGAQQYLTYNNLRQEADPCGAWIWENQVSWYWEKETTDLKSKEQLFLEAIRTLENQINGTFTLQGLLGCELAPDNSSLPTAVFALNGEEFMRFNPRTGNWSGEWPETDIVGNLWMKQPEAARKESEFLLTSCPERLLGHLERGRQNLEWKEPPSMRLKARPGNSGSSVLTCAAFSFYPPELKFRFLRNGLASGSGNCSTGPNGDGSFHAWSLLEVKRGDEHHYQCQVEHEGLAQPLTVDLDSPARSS
T7 sequence (looked up) 2: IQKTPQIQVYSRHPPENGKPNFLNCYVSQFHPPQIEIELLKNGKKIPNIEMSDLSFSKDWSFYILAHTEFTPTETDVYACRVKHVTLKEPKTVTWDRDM

[12] = biological target: T4, recombinant human FcRn; assay: SPR, antibody amine-coupled on GLM chip, FcRn as analyte, equilibrium model, pH 7.4
[13] = biological target: T5, recombinant cynomolgus FcRn; assay: as above
[14] = biological target: T6, mouse FcRn; assay: as above
[15] = biological target: T7, rat FcRn; assay: as above
[16] = biological target: T4, recombinant human FcRn; assay: SPR, antibody amine-coupled on GLM chip, FcRn as analyte, equilibrium model, pH 6.0; pH 6.0
[17] = biological target: T5, recombinant cynomolgus FcRn; assay: as above
[18] = biological target: T6, mouse FcRn; assay: as above
[19] = biological target: T7, rat FcRn; assay: as above

T1 sequence (P01375 77-233 limits assumed): as the sequence (P01375 77-233 limits assumed) above

B1: BPC1500 (antibody, V domains shown)
VH: EVQLVESGGGLVQPGRSLRLSCAASGFTFDDHALHWVRQAPGKGLEWVSAITWNSGHIDYADSVEGRFTISRDNAKNSLYLQMNSLRAEDTAVYYCAKVRYLSTASSLDYWGQGTLVTVSS
VL: not shown
notes: also called CDR variant cb2-44, wild-type Fc; improved anti-TNFα antibody
**Q.** B1 was tested. Which “IC50, L929 neutralisation assay (cell viability)” value [1] did it give?
**A.** Its value is 0.13 µg/mL.

**Q.** What about the “IC50, TNFα-induced IL-6 release assay (whole blood)” value [2] of the same binder?
**A.** The value was 0.11 nM.

**Q.** What about the Kd [3] of the same binder?
**A.** The Kd was 0.0156 nM.

**Q.** And the koff [3]?
**A.** The koff was 4.19e-05 s⁻¹.

**Q.** And the kon [3]?
**A.** Its kon is 2.68e+06 M⁻¹ s⁻¹.

**Q.** What about the Kd [4] of the same binder?
**A.** Its Kd is 0.015 nM.

**Q.** And the koff [4]?
**A.** The koff was 3.51e-05 s⁻¹.

**Q.** And the kon [4]?
**A.** Its kon is 2.34e+06 M⁻¹ s⁻¹.

**Q.** And the Kd [5]?
**A.** Its Kd is 0.0157 nM.

**Q.** And the koff [5]?
**A.** Its koff is 7.07e-05 s⁻¹.

**Q.** What about the kon [5] of the same binder?
**A.** Its kon is 4.51e+06 M⁻¹ s⁻¹.

**Q.** What about the Kd [6] of the same binder?
**A.** The Kd was 0.0467 nM.

**Q.** What about the koff [6] of the same binder?
**A.** The koff was 0.000209 s⁻¹.

**Q.** And the kon [6]?
**A.** Its kon is 4.48e+06 M⁻¹ s⁻¹.

**Q.** And the Kd [7]?
**A.** The Kd was 0.015 nM.

**Q.** And the koff [7]?
**A.** Its koff is 3e-05 s⁻¹.

**Q.** And the kon [7]?
**A.** Its kon is 2.06e+06 M⁻¹ s⁻¹.

B2: BPC2604 (antibody, human IgG1, kappa)
heavy: QVTLRESGPALVKPTQTLTLTCTFSGFSLSTSGMGVSWIRQPPGKGLEWLAHIYWDDDKRYNPSLKSRLTISKDTSRNQVVLTMTNMDPVDTATYYCARRETVFYWYFDVWGRGTLVTVSSASTKGPSVFPLAPSSKSTSGGTAALGCLVKDYFPEPVTVSWNSGALTSGVHTFPAVLQSSGLYSLSSVVTVPSSSLGTQTYICNVNHKPSNTKVDKKVEPKSCDKTHTCPPCPAPELLGGPSVFLFPPKPKDTLYITREPEVTCVVVDVSHEDPEVKFNWYVDGVEVHNAKTKPREEQYNSTYRVVSVLTVLHQDWLNGKEYKCKVSNKALPAPIEKTISKAKGQPREPQVYTLPPSRDELTKNQVSLTCLVKGFYPSDIAVEWESNGQPENNYKTTPPVLDSDGSFFLYSKLTVDKSRWQQGNVFSCSVMHEALHNHYTQKSLSLSPGK
light: DIVLTQSPSSLSASVGDRVTITCKASQSVDYDGDSYMNWYQQKPGKAPKLLIYAASNLESGIPSRFSGSGSGTDFTFTISSLQPEDIATYYCQQSNEDPPTFGQGTKVEIKRTVAAPSVFIFPPSDEQLKSGTASVVCLLNNFYPREAKVQWKVDNALQSGNSQESVTEQDSKDSTYSLSSTLTLSKADYEKHKVYACEVTHQGLSSPVTKSFNRGEC
notes: also called pascolizumab-YTE; Pasco-YTE
**Q.** Which Kd [8] does the source give for B2 here?
**A.** The Kd was 98 nM.

**Q.** And the Kd [9]?
**A.** Its Kd is 92.1 nM.

**Q.** And the Kd [10]?
**A.** The Kd was 53.4 nM.

**Q.** And the Kd [11]?
**A.** Its Kd is 66 nM.

**Q.** What about the Kd [12] of the same binder?
**A.** Its Kd is 11600 nM.

**Q.** What about the Kd [13] of the same binder?
**A.** Its Kd is 11100 nM.

**Q.** What about the Kd [14] of the same binder?
**A.** The Kd was 2160 nM.

**Q.** What about the Kd [15] of the same binder?
**A.** The Kd was 4330 nM.

B3: Pascolizumab (antibody, human IgG1, kappa)
heavy: not shown
light: B2 light
notes: IgG1, unmodified Fc; also called anti-IL-4 antibody
**Q.** For B3, which Kd [16] is on record?
**A.** The Kd was 541 nM.

**Q.** And the Kd [17]?
**A.** Its Kd is 505 nM.

**Q.** What about the Kd [18] of the same binder?
**A.** Its Kd is 205 nM.

**Q.** What about the Kd [19] of the same binder?
**A.** Its Kd is 228 nM.
